In assay [1] the target is T1, SARS-CoV-2 receptor-binding domain (RBD) (SARS-CoV-2 Wuhan-Hu-1 (GenBank …, UniProt P0DTC2)).
T1 construct: source: High Five cells (baculovirus, pAcgp67B), purified from the medium (Ni-sepharose)
The assay is described as follows: SPR. The note with it: both partners purified.

Assay [2] addresses T1, SARS-CoV-2 receptor-binding domain (RBD). The assay is described as follows: SPR. The note with it: both partners purified. This is another data set of the same source.
The target in assay [3] is T2, SARS-CoV receptor-binding domain (RBD) (SARS-CoV (GenBank NC_004718.3), UniProt P59594).
T2 construct: also called SARS-CoV RBD; source: High Five cells (baculovirus, pAcgp67B), purified from the medium (Ni-sepharose)
The assay is described as follows: SPR. The following applies: both partners purified.

In assay [4] the target is T1, SARS-CoV-2 receptor-binding domain (RBD). The assay is described as follows: cell-based or functional assay.
For assay [5], the target named is T2, SARS-CoV receptor-binding domain (RBD). The assay is described as follows: SPR. The following applies: both partners purified. The source holds these as a separate data set.

B1: 7D6 monoclonal antibody (antibody, V domains shown)
VH: EVQLQQSGAELVRPGASVKLSCTASGFNIKDTYIHWVKQRPEQGLEWIGRIDPGDGDTEYDPSFQGKATITADTSSNTAYLELSSLTSEDTAVYYCTRFYDYVDYGMDYWGQGTSVTVSS
VL: DIQMTQSPASLSASVGETVTITCRASGNIHNYLAWYQQKQGKSPQLLVYNAKTLADGVPSRFSGSGSGTQYSLKINSLQPEDFGSYYCQHFWSTPPWTFGGGTKLEVK
notes: also called mAb 7D6; source: mouse hybridoma, ascites, purified (protein A agarose); copies: 2 + 2
In general, Kd refers to the equilibrium constant for the complex coming apart. Lower therefore signals higher affinity. One may read the koff as the rate constant with which the complex falls apart. Read a low koff as slow dissociation. One may read the kon as the rate constant with which the complex forms. A higher kon goes with fast association. On to B1, for which the Kd is 0.00265 nM in assay [1], less than 0.01 nM in assay [2] and 0.03 nM in assay [3]. In addition, the figures for the koff in assay [2] and in assay [3] were 1.1e-06 s⁻¹ and 1.7e-06 s⁻¹, respectively. Also, the values for the kon in assay [2] and in assay [3] were 180000 M⁻¹ s⁻¹ and 58500 M⁻¹ s⁻¹, respectively. In addition, in assay [4], the “Fig. S4: IC50 of neutralisation, LV-SARS-CoV-2 WT” value came out at 5.98 µg/mL.

B2: 6D6 monoclonal antibody (antibody, V domains shown)
VH: EVQLQQSGAELVKPGASVKLSCTTSGFNIIDTYMHWVKQRPEEGLEWIGGIDPVNGNSEYDPKFQDKATITADTSSNTAYLHLSRLTSEDTAVYYCASAHYYGSSSSFPYWGQGTLVTVSA
VL: DIVMTQSQKFMSTSVGDRVSVTCKASQNVGTHVAWYQQKPGQSPKALIYSASYRYSGVPDRFTGSGVGTDFTLTITNVQSEDLAEYFCQQYNSYFTFGSGTKLEIK
notes: also called mAb 6D6; source: mouse hybridoma, ascites, purified (protein A agarose); copies: 2 + 2
As for B2, the Kd was 3.72 nM in assay [5], 0.01 nM in assay [2] and 0.37 nM in assay [3]. Besides, the koff in assay [2] was determined as 1.5e-06 s⁻¹; in assay [3], 6.3e-06 s⁻¹. Besides, the kon in assay [2] was 115000 M⁻¹ s⁻¹; in assay [3], 17000 M⁻¹ s⁻¹. Also, in assay [4], the “Fig. S4: IC50 of neutralisation, LV-SARS-CoV-2 WT” value turned out to be 10.9 µg/mL.

The values are drawn from article PMC8476643 (Nature Communications, 2021).
